Laboratory results reported in patent US11702475B2, “Cysteine engineered fibronectin type III domain binding molecules” (Janssen Biotech, Inc., priority 2013, dated 2023).

Columns and labels:
[1] = molecular target: T1, EGFR-Fc (recombinant human extracellular domain of EGFR fused to an IgG1 Fc) (Homo sapiens, UniProt P00533); assay: Affinity of FN3 domains to EGFR-Fc by surface plasmon resonance (ProteOn), incl. off-rate screen; type: binding; conditions: SPR ProteOn, 1:1 Langmuir fit
T1 construct: purchased R&D Systems
Method: Select EGFR-binding FN3 domains were screened to identify those with slow off-rates (koff) in binding to EGFR-Fc on a ProteOn XPR-36 instrument (Bio-Rad) to facilitate selection of high affinity binders. Goat anti-human Fc IgG (R&D systems), at a concentration of 5 μg/mL, was directly immobilized via amine coupling (at pH 5.0) on all 6 ligand channels in horizontal orientation on the chip with a flow rate of 30 μL/min in PBS containing 0.005% Tween-20. The immobilization densities averaged about 1500 Response Units (RU) with less than 5% variation among different channels. EGFR-Fc was captured on the anti-human Fc IgG surface to a density around 600 RU in vertical ligand orientation. All tested FN3 domains were normalized to a concentration of 1 μM and tested for their binding in horizontal orientation. […] The dissociation phase was monitored for 10 minutes at a flow rate of 100 μL/min. […]
Binding affinity of selected EGFR-binding FN3 domains to recombinant EGFR extracellular domain was further characterized by surface Plasmon resonance methods using a Proteon Instrument (BioRad). […] The dissociation phase for all concentrations of each EGFR-binding FN3 domain was monitored at a flow rate of 100 μL/min for 30 minutes (for those with koff˜10^−2 s^−1 from off-rate screening), or 1 hour (for those with koff˜10^−3 s^−1 or slower). […]

[2] = molecular target: T2, EGFR on A431 cells (EGF binding) (Homo sapiens, UniProt P00533); assay: A431 cell EGF competition assay; conditions: biotinylated EGF 30 ng/mL
T2 construct: A431 cells (American Type Culture Collection, cat. #CRL-1555) over-express EGFR; host or cells: A431
Method: To better characterize the mechanism of EGFR binding, the ability of various identified FN3 domain clones to bind EGFR in an EGF-competitive manner was measured using A431 cells and run in parallel with the A431 binding assay screen. A431 cells were plated at 5,000/well in opaque black 96-well plates and allowed to attach overnight at 37° C., in a humidified 5% CO2 atmosphere. Cells were incubated with 50 μL/well of 1:1,000 diluted bacterial lysate for 1 hour at room temperature in triplicate plates. Biotinylated EGF (Invitrogen, cat. #E-3477) was added to each well to give a final concentration of 30 ng/mL and incubated for 10 minutes at room temperature. Cells were washed 3 times with 150 μL/well of FACS stain buffer. […] Cells were washed 3 times with 150 μL/well of FACS stain buffer, after which wells were filled with 100 μL of FACS stain buffer and read for fluorescence at 600 nm using an Acumen eX3 reader.
A431 cells were plated at 5,000/well in opaque black 96-well plates and allowed to attach overnight at 37° C., in a humidified 5% CO2 atmosphere. […] Cells were washed 3 times with 150 μL/well of FACS stain buffer, after which wells were filled with 100 μL of FACS stain buffer and read for fluorescence at 600 nm using an Acumen eX3 reader. […]

NCI-H292 cells = assay: NCI-H292 growth assay; type: cell-based, human; conditions: 120 hours, CellTiter-Glo
Method: Inhibition of EGFR-dependent cell growth was assessed by measuring viability of the EGFR over-expressing human tumor cell lines, NCI-H292 and NCI-H322 (American Type Culture Collection, cat. #CRL-1848 & #CRL-5806, respectively), following exposure to EGFR-binding FN3 domains. Cells were plated at 500 cells/well (NCI-H292) or 1,000 cells/well (NCI-H322) in opaque white 96-well tissue culture-treated plates (Nunc) in 1004/well of RPMI medium (Gibco) containing GlutaMAX™ and 10 mM HEPES, supplemented with 10% heat inactivated fetal bovine serum (Gibco) and 1% penicillin/streptomycin (Gibco), and allowed to attach overnight at 37° C. in a humidified 5% CO2 atmosphere. Cells were treated by addition of 54/well of phosphate-buffered saline (PBS) containing a concentration range of EGFR-binding FN3 domains. […] Viable cells were detected by addition of 754/well of CellTiter-Glo® reagent (Promega), followed by mixing on a plate shaker for 2 minutes, and incubation in the dark at room temperature for a further 10 minutes. Plates were read on a SpectraMax M5 plate reader (Molecular Devices) set to luminescence mode, with a read time of 0.5 seconds/well against a blank of medium only. […] IC50 values were determined by fitting data to the equation for a sigmoidal dose response with variable slope using GraphPad Prism 4 (GraphPad Software).

B1: P54AR4-47: EGFR-binding FN3 domain, SEQ ID NO: 20 (protein)
chain: LPAPKNLVVSEVTEDSLRLSWGYNGDHFDSFLIQYQESEKVGEAINLTVPGSERSYDLTGLKPGTEYTVSIYGVHNVYKDTNMRGLPLSAEFTT
modifications: EGFR binding FN3 domain
[1]
  Kd: 2.51 nM
[2]
  IC50: 7.1 nM
NCI-H292 cells
  IC50: 44 nM
